Measured values taken from US12226546 (University of California, dated 2025).

Experiments:
poly(L-methionine …) [1] = biological target: T1, poly(L-methionine sulfoxide-stat-L-alanine)155-block-poly(L-glutamate-Na)90, (M^OA)155E90 (not fully specified; L-methionine sulfoxide (M^O) residues in the statistical M^O/A segment (ca. 88 mol % M^O, 12 mol % Ala)); assay: mixing of equal volumes of 5.0 wt % solutions in 1xPBS; polyion complex hydrogel formation
T1 chain: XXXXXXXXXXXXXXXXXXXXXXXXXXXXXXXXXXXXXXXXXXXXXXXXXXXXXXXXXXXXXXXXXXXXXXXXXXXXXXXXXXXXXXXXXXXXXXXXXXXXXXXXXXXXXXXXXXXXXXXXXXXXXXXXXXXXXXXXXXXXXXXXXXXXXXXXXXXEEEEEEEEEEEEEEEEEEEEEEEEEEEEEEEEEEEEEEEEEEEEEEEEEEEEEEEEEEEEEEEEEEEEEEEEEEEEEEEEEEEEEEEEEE

[2] = biological target: T2, FITC labeled (M^OA)155E60 (not fully specified; L-methionine sulfoxide (M^O) residues in the statistical M^O/A segment; fluorescein isothiocyanate (FITC) conjugated onto the N-terminal amine); assay: laser scanning confocal microscopy of fluorescently labeled hydrogel, 3.0 wt % in PBS
T2 construct: Fluorescently labeled form of (M^OA)155E60 used for confocal microscopy; also called E labeled (FITC)
T2 chain: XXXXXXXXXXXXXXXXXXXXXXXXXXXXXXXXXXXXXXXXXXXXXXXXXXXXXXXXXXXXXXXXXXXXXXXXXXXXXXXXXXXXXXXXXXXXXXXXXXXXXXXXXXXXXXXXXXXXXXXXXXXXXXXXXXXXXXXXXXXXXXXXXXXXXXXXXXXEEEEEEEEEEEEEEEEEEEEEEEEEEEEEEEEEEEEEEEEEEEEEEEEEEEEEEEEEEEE
Text: Laser scanning confocal microscopy (LSCM) was then used to visualize the labeled chains and the hydrogel network (FIG. 3A-3B).
Example 8—Laser Scanning Confocal Microscopy (LSCM) of Fluorescently Labeled Hydrogels LSCM images of hydrogels (3.0 wt % in PBS) were taken on a Leica TCS-SP1 MP-Inverted Confocal and Multiphoton Microscope equipped with an argon laser (476 and 488 nm blue lines), a diode (DPSS) laser (561 nm yellow-green line), and a helium-neon laser (633 nm far red line). Fluorescently labeled hydrogel samples were visualized on glass slides with a spacer between the slide and the cover slip (double-sided tape) allowing the self-assembled structures to be minimally disturbed during focusing. A Z-slice thickness of 0.78 µm was used. Sample imaging was performed at the Advanced Light Microscopy/Spectroscopy Center (ALMS) at the UCLA California NanoSystems Institute (CNSI).

poly(L-methionine …) [3] = biological target: T3, poly(L-methionine sulfoxide0.88-stat-L-alanine0.12)155-block-poly(L-glutamate)60, (M^OA)155E60 (not fully specified; L-methionine sulfoxide (M^O) residues in the statistical M^O/A segment (ca. 88 mol % M^O, 12 mol % Ala)); assay: mixing of equal volumes of 5.0 wt % solutions in 1xPBS; polyion complex hydrogel formation
T3 chain: T2 chain

poly(L-methionine …) [4] = biological target: T1, poly(L-methionine …); assay: mixing of length-mismatched copolypeptides at E to K stoichiometry; hydrogel formation
poly(L-methionine …) [5] = biological target: T4, poly(L-methionine sulfoxide-stat-L-alanine)155-block-poly(L-glutamate-Na)30, (M^OA)155E30 (not fully specified; L-methionine sulfoxide (M^O) residues in the statistical M^O/A segment (ca. 88 mol % M^O, 12 mol % Ala)); assay: mixing of equal volumes of 5.0 wt % solutions in 1xPBS; polyion complex hydrogel formation
T4 chain: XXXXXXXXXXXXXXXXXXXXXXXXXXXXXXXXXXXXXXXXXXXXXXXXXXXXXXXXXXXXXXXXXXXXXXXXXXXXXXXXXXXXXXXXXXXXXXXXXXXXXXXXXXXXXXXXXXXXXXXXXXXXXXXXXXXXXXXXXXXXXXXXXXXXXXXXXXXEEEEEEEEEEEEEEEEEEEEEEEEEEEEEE

poly(L-methionine …) [6] = biological target: T5, poly(L-methionine sulfoxide-stat-L-alanine)155-block-poly(L-glutamate-Na)120, (M^OA)155E120 (not fully specified; L-methionine sulfoxide (M^O) residues in the statistical M^O/A segment (ca. 88 mol % M^O, 12 mol % Ala)); assay: as above
T5 chain: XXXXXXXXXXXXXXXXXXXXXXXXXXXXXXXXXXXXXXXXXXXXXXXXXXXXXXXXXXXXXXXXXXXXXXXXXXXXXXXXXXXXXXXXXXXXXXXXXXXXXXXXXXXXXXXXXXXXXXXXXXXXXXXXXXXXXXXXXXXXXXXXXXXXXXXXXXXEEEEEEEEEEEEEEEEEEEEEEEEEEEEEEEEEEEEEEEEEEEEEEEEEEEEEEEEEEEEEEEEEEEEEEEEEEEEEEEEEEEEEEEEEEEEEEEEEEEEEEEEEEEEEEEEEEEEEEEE

B1: poly(L-methionine sulfoxide-stat-L-alanine)155-block-poly(L-lysine-HCl)90, (M^OA)155K90 (other)
chain: XXXXXXXXXXXXXXXXXXXXXXXXXXXXXXXXXXXXXXXXXXXXXXXXXXXXXXXXXXXXXXXXXXXXXXXXXXXXXXXXXXXXXXXXXXXXXXXXXXXXXXXXXXXXXXXXXXXXXXXXXXXXXXXXXXXXXXXXXXXXXXXXXXXXXXXXXXXKKKKKKKKKKKKKKKKKKKKKKKKKKKKKKKKKKKKKKKKKKKKKKKKKKKKKKKKKKKKKKKKKKKKKKKKKKKKKKKKKKKKKKKKKK
modifications: not fully specified; X: randomised place (mixture); also: X1-155: Met(O) or Ala, statistical (ca. 88 mol % Met(O)), HCl salt
B1: binds (poly(L-methionine …) [1]).

B2: TRITC labeled (M^OA)155K60 (other)
chain: XXXXXXXXXXXXXXXXXXXXXXXXXXXXXXXXXXXXXXXXXXXXXXXXXXXXXXXXXXXXXXXXXXXXXXXXXXXXXXXXXXXXXXXXXXXXXXXXXXXXXXXXXXXXXXXXXXXXXXXXXXXXXXXXXXXXXXXXXXXXXXXXXXXXXXXXXXXKKKKKKKKKKKKKKKKKKKKKKKKKKKKKKKKKKKKKKKKKKKKKKKKKKKKKKKKKKKK
modifications: X: randomised place (mixture); also: positions 1-155 statistical Met(O)/Ala copolymer, polydisperse, nominal block lengths, TRITC on an unspecified Lys side chain, about 1 probe per 5 chains, Lys as HCl salt
notes: Fluorescently labeled form of (M^OA)155K60 used for confocal microscopy; also called K labeled (TRITC)
B2: binds [2].

B3: poly(L-methionine sulfoxide0.88-stat-L-alanine0.12)155-block-poly(L-lysine)60, (M^OA)155K60 (other)
chain: B2 chain
modifications: not fully specified; X: randomised place (mixture); also: X1-155: Met(O) or Ala, statistical (ca. 88 mol % Met(O), 12 mol % Ala), HCl salt
B3: binds (poly(L-methionine …) [3]).

B4: poly(L-methionine sulfoxide-stat-L-alanine)155-block-poly(L-lysine-HCl)30, (M^OA)155K30 (other)
chain: XXXXXXXXXXXXXXXXXXXXXXXXXXXXXXXXXXXXXXXXXXXXXXXXXXXXXXXXXXXXXXXXXXXXXXXXXXXXXXXXXXXXXXXXXXXXXXXXXXXXXXXXXXXXXXXXXXXXXXXXXXXXXXXXXXXXXXXXXXXXXXXXXXXXXXXXXXXKKKKKKKKKKKKKKKKKKKKKKKKKKKKKK
modifications: not fully specified; L-methionine sulfoxide (M^O) residues in the statistical M^O/A segment (ca. 88 mol % M^O, 12 mol % Ala)
B4: binds (poly(L-methionine …) [4]); binds (poly(L-methionine …) [5]).

B5: poly(L-methionine sulfoxide-stat-L-alanine)155-block-poly(L-lysine-HCl)120, (M^OA)155K120 (other)
chain: XXXXXXXXXXXXXXXXXXXXXXXXXXXXXXXXXXXXXXXXXXXXXXXXXXXXXXXXXXXXXXXXXXXXXXXXXXXXXXXXXXXXXXXXXXXXXXXXXXXXXXXXXXXXXXXXXXXXXXXXXXXXXXXXXXXXXXXXXXXXXXXXXXXXXXXXXXXKKKKKKKKKKKKKKKKKKKKKKKKKKKKKKKKKKKKKKKKKKKKKKKKKKKKKKKKKKKKKKKKKKKKKKKKKKKKKKKKKKKKKKKKKKKKKKKKKKKKKKKKKKKKKKKKKKKKKKKK
modifications: X: randomised place (mixture); also: X1-155: Met(O) or Ala, statistical (ca. 88 mol % Met(O)), polydisperse, lengths nominal, HCl salt
B5: binds (poly(L-methionine …) [6]).
